Target: His–CtBP2 (UniProt P56545 1-445)
Assay: ELISA

SGWTVVRMY (cyclic peptide (cyclo-SGWTVVRMY)) [CP61 (cyclo-SGWTVVRMY)]
IC50: 19 ± 4 µM
